# T1: FcγRIIa R (human, UniProt P12318 34-217)
# T1 construct: extracellular domain; also called FcgRIIa R type; 2aR
# T1 sequence (looked up): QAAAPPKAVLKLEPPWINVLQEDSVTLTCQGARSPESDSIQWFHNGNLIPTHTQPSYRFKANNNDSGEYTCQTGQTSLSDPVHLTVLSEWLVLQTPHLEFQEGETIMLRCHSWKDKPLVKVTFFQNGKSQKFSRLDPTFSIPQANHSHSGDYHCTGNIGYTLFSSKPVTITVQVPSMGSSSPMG
# T2: FcγRIIb (human, UniProt P31994 43-217)
# T2 construct: extracellular domain; also called FcgRIIb; 2b
# T2 sequence (looked up): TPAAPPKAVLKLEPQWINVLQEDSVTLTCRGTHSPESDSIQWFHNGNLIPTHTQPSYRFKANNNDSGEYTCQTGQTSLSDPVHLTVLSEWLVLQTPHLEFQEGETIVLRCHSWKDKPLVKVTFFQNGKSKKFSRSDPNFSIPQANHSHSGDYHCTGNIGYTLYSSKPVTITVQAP
# B1: GpH7-A5/GpH7-B3 variant Q295_20W/GpL16-k0 (antibody, human IgG1, kappa)
# heavy 1: not shown
# heavy 2: not shown
# light: DIVMTQSPLSLPVTPGEPASISCQASESLVHSNRNTYLHWYLQKPGQSPQLLIYKVSNRFSGVPDRFSGSGSGTDFTLKISRVEAEDVGVYYCSQNTHVPPTFGQGTKVEIERTVAAPSVFIFPPSDEQLKSGTASVVCLLNNFYPREAKVQWKVDNALQSGNSQESVTEQDSKDSTYSLSSTLTLSKADYEKHKVYACEVTHQGLSSPVTKSFNRGEC
# notes: heterodimerized antibody, mutation in the GpH7-B3 chain only; also called He Ab
# B2: GpH7-A5/GpH7-B3 variant P271_04F/GpL16-k0 (antibody, human IgG1, kappa)
# heavy 1: not shown
# heavy 2: not shown
# light: B1 light
# notes: as for B1
# B3: GpH7-A5/GpH7-B3 variant S298_07I/GpL16-k0 (antibody, human IgG1, kappa)
# heavy 1: not shown
# heavy 2: not shown
# light: B1 light
# notes: as for B1
# B4: GpH7-A5/GpH7-B3 variant E269_19Q/GpL16-k0 (antibody, human IgG1, kappa)
# heavy 1: not shown
# heavy 2: not shown
# light: B1 light
# notes: as for B1
# B5: GpH7-A5/GpH7-B3 variant S298_09D/GpL16-k0 (antibody, human IgG1, kappa)
# heavy 1: not shown
# heavy 2: not shown
# light: B1 light
# notes: as for B1
# B6: GpH7-A5/GpH7-B3 variant Q295_05P/GpL16-k0 (antibody, human IgG1, kappa)
# heavy 1: not shown
# heavy 2: not shown
# light: B1 light
# notes: as for B1
# B7: GpH7-A5/GpH7-B3 variant S298_03V/GpL16-k0 (antibody, human IgG1, kappa)
# heavy 1: not shown
# heavy 2: not shown
# light: B1 light
# notes: as for B1
# B8: GpH7-A5/GpH7-B3 variant E269_14T/GpL16-k0 (antibody, human IgG1, kappa)
# heavy 1: not shown
# heavy 2: not shown
# light: B1 light
# notes: as for B1
# B9: GpH7-A5/GpH7-B3 variant S298_04F/GpL16-k0 (antibody, human IgG1, kappa)
# heavy 1: not shown
# heavy 2: not shown
# light: B1 light
# notes: as for B1
# B10: GpH7-A5/GpH7-B3 variant Q295_15Y/GpL16-k0 (antibody, human IgG1, kappa)
# heavy 1: not shown
# heavy 2: not shown
# light: B1 light
# notes: as for B1
# B11: GpH7-A5/GpH7-B3 variant Q295_16H/GpL16-k0 (antibody, human IgG1, kappa)
# heavy 1: not shown
# heavy 2: not shown
# light: B1 light
# notes: as for B1
# B12: GpH7-A5/GpH7-B3 variant E269_13S/GpL16-k0 (antibody, human IgG1, kappa)
# heavy 1: not shown
# heavy 2: not shown
# light: B1 light
# notes: as for B1
# B13: GpH7-A5/GpH7-B3 variant Q295_04F/GpL16-k0 (antibody, human IgG1, kappa)
# heavy 1: not shown
# heavy 2: not shown
# light: B1 light
# notes: as for B1
# B14: GpH7-A5/GpH7-B3 variant H268_06M/GpL16-k0 (antibody, human IgG1, kappa)
# heavy 1: not shown
# heavy 2: not shown
# light: B1 light
# notes: as for B1
# B15: GpH7-A5/GpH7-B3 variant Q295_11K/GpL16-k0 (antibody, human IgG1, kappa)
# heavy 1: not shown
# heavy 2: not shown
# light: B1 light
# notes: as for B1
# B16: GpH7-A5/GpH7-B3 variant S298_05P/GpL16-k0 (antibody, human IgG1, kappa)
# heavy 1: not shown
# heavy 2: not shown
# light: B1 light
# notes: as for B1
# B17: GpH7-A5/GpH7-B3 variant Y296_01G/GpL16-k0 (antibody, human IgG1, kappa)
# heavy 1: not shown
# heavy 2: not shown
# light: B1 light
# notes: as for B1
# B18: GpH7-A5/GpH7-B3 variant Q295_01G/GpL16-k0 (antibody, human IgG1, kappa)
# heavy 1: not shown
# heavy 2: not shown
# light: B1 light
# notes: as for B1
# Target: T1, FcγRIIa R
# Assay: SPR; He/Con_2aR divided by He/Con_2b (FcγRIIb as reference)
# Method: (§1) The heterodimerized antibodies He Abs in which one of the H chains was introduced with an alteration were assayed for their binding activities to each activating FcγR and inhibitory FcγR according to the method described in Example 4. […] The activating FcγRs in FIGS. 26, 27, 28, and 29 are FcγRIa, FcγRIIa (R), FcγRIIa (H), and FcγRIIIa, respectively.
# (§2) Analysis of interaction between objective antibody and the FcγR was carried out using Biacore T100 (GE Healthcare). HBS-EP+ (GE Healthcare) was used as the running buffer, and the measurement temperature was set to 25° C. Chips produced by immobilizing the antigen peptide by the amine coupling method to a Series S Sencor Chip CM5 (GE Healthcare), or alternatively, chips produced by allowing preliminarily biotinylated antigen peptides to interact with and immobilize onto a Series S Sensor Chip SA (certified) (GE Healthcare) were used. Antibodies of interest were captured onto an antigen peptide-immobilized chip, and allowed to interact to each FcγR diluted with running buffer. To regenerate and repeatedly use the chip, the antibodies captured on the chip were washed off by reacting 10 mM glycine-HCl, pH 1.5.
row,IIaR/IIb (He_2aR/2b),Binder
1,1.35 ratio,B1
2,1.28 ratio,B2
3,1.28 ratio,B3
4,1.31 ratio,B4
5,1.4 ratio,B5
6,1.3 ratio,B6
7,1.34 ratio,B7
8,1.3 ratio,B8
9,1.29 ratio,B9
10,1.27 ratio,B10
11,1.3 ratio,B11
12,1.28 ratio,B12
13,1.29 ratio,B13
14,1.23 ratio,B14
15,1.26 ratio,B15
16,1.34 ratio,B16
17,1.21 ratio,B17
18,1.32 ratio,B18

# Target: T1, FcγRIIa R
# Assay: SPR (Biacore), antibody captured, FcγR as analyte; relative binding
# Method: as §1, §2
row,He/Con_2aR (IIaR binding),Binder
1,60 % of GpH7-A5/GpH7-B3/GpL16-k0 (=100),B1
2,75.9 % of GpH7-A5/GpH7-B3/GpL16-k0 (=100),B2
3,90.1 % of GpH7-A5/GpH7-B3/GpL16-k0 (=100),B3
4,57.8 % of GpH7-A5/GpH7-B3/GpL16-k0 (=100),B4
5,67.8 % of GpH7-A5/GpH7-B3/GpL16-k0 (=100),B5
6,87.4 % of GpH7-A5/GpH7-B3/GpL16-k0 (=100),B6
7,86.3 % of GpH7-A5/GpH7-B3/GpL16-k0 (=100),B7
8,66 % of GpH7-A5/GpH7-B3/GpL16-k0 (=100),B8
9,84 % of GpH7-A5/GpH7-B3/GpL16-k0 (=100),B9
10,82.8 % of GpH7-A5/GpH7-B3/GpL16-k0 (=100),B10
11,81.3 % of GpH7-A5/GpH7-B3/GpL16-k0 (=100),B11
12,61.2 % of GpH7-A5/GpH7-B3/GpL16-k0 (=100),B12
13,83.6 % of GpH7-A5/GpH7-B3/GpL16-k0 (=100),B13
14,81 % of GpH7-A5/GpH7-B3/GpL16-k0 (=100),B14
15,88.9 % of GpH7-A5/GpH7-B3/GpL16-k0 (=100),B15
16,16 % of GpH7-A5/GpH7-B3/GpL16-k0 (=100),B16
17,95.8 % of GpH7-A5/GpH7-B3/GpL16-k0 (=100),B17
18,60.9 % of GpH7-A5/GpH7-B3/GpL16-k0 (=100),B18

# Target: T2, FcγRIIb
# Assay: as above
# Method: as §1, §2
row,He/Con_2b (IIb binding),Binder
1,44.4 % of GpH7-A5/GpH7-B3/GpL16-k0 (=100),B1
2,59.5 % of GpH7-A5/GpH7-B3/GpL16-k0 (=100),B2
3,70.6 % of GpH7-A5/GpH7-B3/GpL16-k0 (=100),B3
4,44.3 % of GpH7-A5/GpH7-B3/GpL16-k0 (=100),B4
5,48.3 % of GpH7-A5/GpH7-B3/GpL16-k0 (=100),B5
6,67.5 % of GpH7-A5/GpH7-B3/GpL16-k0 (=100),B6
7,64.5 % of GpH7-A5/GpH7-B3/GpL16-k0 (=100),B7
8,50.6 % of GpH7-A5/GpH7-B3/GpL16-k0 (=100),B8
9,65.4 % of GpH7-A5/GpH7-B3/GpL16-k0 (=100),B9
10,65.4 % of GpH7-A5/GpH7-B3/GpL16-k0 (=100),B10
11,62.7 % of GpH7-A5/GpH7-B3/GpL16-k0 (=100),B11
12,47.8 % of GpH7-A5/GpH7-B3/GpL16-k0 (=100),B12
13,64.7 % of GpH7-A5/GpH7-B3/GpL16-k0 (=100),B13
14,65.7 % of GpH7-A5/GpH7-B3/GpL16-k0 (=100),B14
15,70.4 % of GpH7-A5/GpH7-B3/GpL16-k0 (=100),B15
16,11.9 % of GpH7-A5/GpH7-B3/GpL16-k0 (=100),B16
17,79.3 % of GpH7-A5/GpH7-B3/GpL16-k0 (=100),B17
18,46 % of GpH7-A5/GpH7-B3/GpL16-k0 (=100),B18

# — patent US20180155451A1 (published 2018)
